Results from the DeepSol protein solubility set.

Assay: soluble on expression in E. coli; label from the status in PepcDB or PDB records

Sequence	soluble on expression in E. coli
MPDSILEAARGGRTMQKYSEMSKEQLQAVKKELDQQYAEIKAQGLALDMSRGKPSVDQLNISMDMMDVLSSSTDLRCETGVDCRNYGVMDGIPEAKRLLGEISEVDPEHIIIYGNSSLNVMFDTVSRSMTHGVMGNTPWCKLDKVKFLCPVPGYDRHFKITEFFGIEMINVPMSPEGPDMDMVEKLVSEDPAIKGIWCVPKYSNPQGYTYSEETVKRFANLKPAAPDFRIYWDNAYSVHHLYDDEKDQDFLLEILDECAKAGNPDMVYKFTSTSKISFPGSGIAALAASKANLDDIRKYITVQTIGHDKLNQLRHVKFFKDLEGVHAHMRKHAAILRPKFEMVEATLEKELGGLGIGEWTTPKGGYFISFESLDGCAKKIVAMAKEAGVVMTGAGATYPYGKDPKDSNIRIAPSFPPIEELEKAAQVFVVCVKLASVEKLLAE	not soluble
MKIVLAYSGGLDTSIILKWLKETYRAEVIAFTADIGQGEEVEEAREKALRTGASKAIALDLKEEFVRDFVFPMMRAGAVYEGYYLLGTSIARPLIAKHLVRIAEEEGAEAIAHGATGKGNDQVRFELTAYALKPDIKVIAPWREWSFQGRKEMIAYAEAHGIPVPVTQEKPYSMDANLLHISYEGGVLEDPWAEPPKGMFRMTQDPEEAPDAPEYVEVEFFEGDPVAVNGERLSPAALLQRLNEIGGRHGVGRVDIVENRFVGMKSRGVYETPGGTILYHARRAVESLTLDREVLHQRDMLSPKYAELVYYGFWYAPEREALQAYFDHVARSVTGVARLKLYKGNVYVVGRKAPKSLYRQDLVSFDEAGGYDQKDAEGFIKIQALRLRVRALVEREGHGA	soluble
ENVLTQSPAIMSPSPGEKVTMTCRARSSVSSSYLHWYQQKSGASPKLWIYSTSNLASGVPARFSGSGSGTSYSLTISSVEAEDTATYYCQQYSGNPWTFGGGTKLEIKRADAAPTVSIFPPSSEQLTSGGASVVCFLNNFYPKDINVKWKIDGSERQNGVLNSWTDQDSKDSTYSMSSTLTLTKDEYERHNSYTCEATHKTSTSPIVKSFNRNEC	soluble
MSLTRFQDRQEGERVVDFYMIRDREVKRASNGTDYLNLTLERKLEYIPARLWDATEQHKQALIRRAVVKVDGVVTVYRQQKQLNIQRIRLATDEDPVTVAELISKPGLSREELWHELRMIIEEIQDETLLKLVKTMLGKKEIRERFTTIPASKATHHPYYAGLLEHVVEVCQSILQLSLIYGTINRDVVIAAAILHDIGKVAALHDPFAPEYTDEGEMIGHVVLGVELINQTAQELGISMDEPILLAVKHCILSQREQDEGATSFVYGPKTKEAILLAALDQLNGRLNSFELMASHAEERWTYSPLFKRKMFTPDNDEGHHHHHH	soluble
FSAPIKAERTAFRRAVCANQYDAVIDAQGLVKSAALVTRLAHGIKHGMDWSTAREPLASLFYNRKHHIAKQQHAVERTRELFAKSLGYDKPQSQGDYAIAKHFLHCQQAVSDPYAVFLHATTRDDKHWPEANWRELIGLVGNTGLRIKLPWGAPHEEARAKRLAEGFDYVDVLPRMSLEEVARVLAGAKFVVSVDTGLSHLTAALDRPNITLYGPTDPGLIGGYGKNQ	not soluble
MIFGVSRTAGMQPHQNKLPPAFPICPPRFLQNKPPAPPLREAVRHSEYPDPRYEMTFQTAFAPPRFEYSGLTLNQDKATKPQTV	not soluble
MGSDKIHHHHHHMTSKLTEVSTPPQAAMPKSTLANEQENKVFIIGLPRTGTTSVSVALLEQGLTVAHQAFTKQAFMLADAVSDAPCFSDYQQLDKLFPNAKFVYLDRPLDKWLPSMQMLLGRMLVHLDKDKGRFHPVMKRSFNHCFDIWQVEDVFDEAHLTACYQRHQQQVMSYFAGRDDFISIDISVTGSLAKLLQFIDLAKPDTAEFRQLQYPQLQSQPQNFPQLNFPQLNFPQLNTGRNVASWDEYKHPNKISANASGPDKRKFFDYRL	not soluble
MRNIMEQYTEKPEILMLTQQSLQSENFKEMLSKNTETKITIIDAKNPSYHELIPDRYFLLVDFSVDTPSDTLVYLKDSNKVLGTIMLNLGYDLDTEELASWPHVKGIFGPLDSMEKVCRGLGAIVKGDNWLSRRLLDQLVNYYKGKESNNVSEP	not soluble
